Laboratory results as given in patent publication US20130209458A1.
pKd: −log10 of the molar value.

Target: MUC1 (TA-Muc1) on the human tumor cell line ZR-75-1 (human) (UniProt P15941)
Assay: Scatchard analysis, 111In-labelled antibody on ZR-75-1 cells

pKd	Substance
8.48	PankoMab expressed in GT-5s (antibody)
8.11	PankoMab expressed in CHO (antibody)
